Experimental data reported in the supplement of paper PMC9112550, “Optimization of the antimicrobial peptide Bac7 by deep mutational scanning” (BMC Biology, 2022).

Test system: Escherichia coli TOP10
Experiment: shrunken log2 fold change of peptide-encoding DNA abundance (4.5 h post-induction vs induction); higher = less antimicrobial activity (less host growth inhibition)
Details: time post-induction: 4.5 h; library: site-saturation at positions 5, 18, 19, 20
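Also: peptides expressed intracellularly from a pBAD plasmid library in pooled LB shake-flask culture, induced with 0.3% L-arabinose, DNA abundance read by NGS, three biological replicates, DESeq2 with apeglm shrinkage.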

Row | Sequence | shrunken log2 fold change
1 | RRIRHRPPRLPRPRPRPPQMPRP | 0.149
2 | RRIRKRPPRLPRPRPRPIRNPRP | -0.34
3 | RRIRCRPPRLPRPRPRPNFHPRP | -0.259
4 | RRIRQRPPRLPRPRPRPGVAPRP | 0.207
5 | RRIRVRPPRLPRPRPRPQDHPRP | -0.253
6 | RRIRWRPPRLPRPRPRPKTHPRP | 0.293
7 | RRIRLRPPRLPRPRPRPFQEPRP | -0.274
8 | RRIRERPPRLPRPRPRPHCNPRP | -1.07
9 | RRIRWRPPRLPRPRPRPMLNPRP | -0.00515
10 | RRIRQRPPRLPRPRPRPEKTPRP | -0.0176
11 | RRIRCRPPRLPRPRPRPCYAPRP | -0.387
12 | RRIRRRPPRLPRPRPRPVMSPRP | 0.042
13 | RRIRRRPPRLPRPRPRPDGFPRP | 0.14
14 | RRIRGRPPRLPRPRPRPTYGPRP | 0.372
15 | RRIRPRPPRLPRPRPRPLAEPRP | 0.322
16 | RRIRHRPPRLPRPRPRPRYSPRP | -0.234
17 | RRIRGRPPRLPRPRPRPQFMPRP | 0.0535
18 | RRIRVRPPRLPRPRPRPHNEPRP | -0.811
19 | RRIRCRPPRLPRPRPRPCTNPRP | -0.134
20 | RRIRDRPPRLPRPRPRPKYIPRP | -0.516
21 | RRIRIRPPRLPRPRPRPFQQPRP | -0.0967
22 | RRIRMRPPRLPRPRPRPAWMPRP | 0.189
23 | RRIRKRPPRLPRPRPRPMNTPRP | -0.287
24 | RRIRLRPPRLPRPRPRPDRMPRP | -0.0414
25 | RRIRIRPPRLPRPRPRPTMQPRP | 0.0261

Row | Sequence | shrunken log2 fold change
26 | RRIRLRPPRLPRPRPRPGYIPRP | -0.41
27 | RRIRARPPRLPRPRPRPRSLPRP | 0.0678
28 | RRIRHRPPRLPRPRPRPRTTPRP | 0.136
29 | RRIRERPPRLPRPRPRPFGLPRP | -0.0181
30 | RRIRCRPPRLPRPRPRPDPYPRP | -0.197
31 | RRIRIRPPRLPRPRPRPLLPPRP | -0.0454
32 | RRIRTRPPRLPRPRPRPWNRPRP | -0.0406
33 | RRIRKRPPRLPRPRPRPGCQPRP | 0.702
34 | RRIRFRPPRLPRPRPRPQKNPRP | 0.16
35 | RRIRYRPPRLPRPRPRPMLCPRP | -0.0838
36 | RRIRCRPPRLPRPRPRPEQKPRP | -0.0751
37 | RRIRARPPRLPRPRPRPAINPRP | -0.00878
38 | RRIRMRPPRLPRPRPRPVNTPRP | 0.0779
39 | RRIRLRPPRLPRPRPRPGFKPRP | 0.0325
40 | RRIRSRPPRLPRPRPRPYDDPRP | 0.0208
41 | RRIRARPPRLPRPRPRPILTPRP | 0.0217
42 | RRIRGRPPRLPRPRPRPFMIPRP | -0.0383
43 | RRIRKRPPRLPRPRPRPPCAPRP | 0.804
44 | RRIRIRPPRLPRPRPRPWAWPRP | -0.00783
45 | RRIRIRPPRLPRPRPRPKYTPRP | -0.686
46 | RRIRTRPPRLPRPRPRPVLMPRP | 0.187
47 | RRIRARPPRLPRPRPRPCWAPRP | 0.119
48 | RRIRIRPPRLPRPRPRPDWFPRP | 0.0564
49 | RRIRNRPPRLPRPRPRPFIRPRP | -0.111
50 | RRIRRRPPRLPRPRPRPEDFPRP | 0.117

Row | Sequence | shrunken log2 fold change
51 | RRIRYRPPRLPRPRPRPRKYPRP | -0.333
52 | RRIRWRPPRLPRPRPRPDRNPRP | 0.0394
53 | RRIRFRPPRLPRPRPRPSQTPRP | -0.304
54 | RRIRRRPPRLPRPRPRPMQMPRP | 0.54
55 | RRIRNRPPRLPRPRPRPHMIPRP | -0.168
56 | RRIRARPPRLPRPRPRPASAPRP | 0.52
57 | RRIRIRPPRLPRPRPRPPNAPRP | -0.0573
58 | RRIRCRPPRLPRPRPRPWDYPRP | 0.00188
59 | RRIRNRPPRLPRPRPRPTGFPRP | -0.0139
60 | RRIRPRPPRLPRPRPRPYVHPRP | -0.356
61 | RRIRDRPPRLPRPRPRPHLFPRP | 0.00233
62 | RRIRERPPRLPRPRPRPHCRPRP | -0.168
63 | RRIRLRPPRLPRPRPRPAWCPRP | 0.094
64 | RRIRGRPPRLPRPRPRPFHMPRP | -0.0599
65 | RRIRPRPPRLPRPRPRPGSGPRP | 1.05
66 | RRIRIRPPRLPRPRPRPTLMPRP | -0.0204
67 | RRIRPRPPRLPRPRPRPPMYPRP | -0.368
68 | RRIRMRPPRLPRPRPRPPKHPRP | 0.829
69 | RRIRVRPPRLPRPRPRPIVQPRP | -0.223
70 | RRIRVRPPRLPRPRPRPMCHPRP | -0.0674
71 | RRIRRRPPRLPRPRPRPFANPRP | 0.00652
72 | RRIRCRPPRLPRPRPRPFDHPRP | 0.0529
73 | RRIRARPPRLPRPRPRPKWPPRP | 0.751
74 | RRIRARPPRLPRPRPRPRIDPRP | 0.74
75 | RRIRDRPPRLPRPRPRPWKIPRP | 0.0112

Row | Sequence | shrunken log2 fold change
76 | RRIRLRPPRLPRPRPRPNNLPRP | -0.177
77 | RRIRFRPPRLPRPRPRPVQDPRP | -0.209
78 | RRIRKRPPRLPRPRPRPNYSPRP | -0.0472
79 | RRIRVRPPRLPRPRPRPQLLPRP | -0.0606
80 | RRIRRRPPRLPRPRPRPSSLPRP | -0.134
81 | RRIRDRPPRLPRPRPRPLTAPRP | 0.48
82 | RRIRTRPPRLPRPRPRPLMNPRP | -0.852
83 | RRIRSRPPRLPRPRPRPHIDPRP | -0.369
84 | RRIRYRPPRLPRPRPRPLDNPRP | -0.0671
85 | RRIRCRPPRLPRPRPRPTTHPRP | -0.0573
86 | RRIRARPPRLPRPRPRPQSSPRP | -0.0298
87 | RRIRPRPPRLPRPRPRPKNAPRP | -0.0349
88 | RRIRRRPPRLPRPRPRPPDPPRP | 0.707
89 | RRIRGRPPRLPRPRPRPYCPPRP | -0.333
90 | RRIRWRPPRLPRPRPRPMPNPRP | -0.0767
91 | RRIRARPPRLPRPRPRPLWCPRP | -0.264
92 | RRIRMRPPRLPRPRPRPCKDPRP | -0.0302
93 | RRIRDRPPRLPRPRPRPAQQPRP | -0.0267
94 | RRIRWRPPRLPRPRPRPHPDPRP | 0.0175
95 | RRIRIRPPRLPRPRPRPDHGPRP | 0.0143
96 | RRIRPRPPRLPRPRPRPIGSPRP | 0.0547
97 | RRIRARPPRLPRPRPRPVFWPRP | 0.699
98 | RRIRERPPRLPRPRPRPWDLPRP | -0.164
99 | RRIRMRPPRLPRPRPRPLIPPRP | -0.0413
100 | RRIRARPPRLPRPRPRPHGSPRP | -0.071

Row | Sequence | shrunken log2 fold change
101 | RRIRYRPPRLPRPRPRPFSNPRP | 0.0549
102 | RRIRNRPPRLPRPRPRPQGYPRP | -0.667
103 | RRIRRRPPRLPRPRPRPEITPRP | 0.0455
104 | RRIRQRPPRLPRPRPRPVNCPRP | -0.0672
105 | RRIRQRPPRLPRPRPRPSPPPRP | 0.169
106 | RRIRQRPPRLPRPRPRPHGWPRP | -0.0188
107 | RRIRARPPRLPRPRPRPVSDPRP | 0.576
108 | RRIRFRPPRLPRPRPRPDEFPRP | -0.267
109 | RRIRDRPPRLPRPRPRPWRMPRP | -0.397
110 | RRIRRRPPRLPRPRPRPVDFPRP | 0.178
111 | RRIRERPPRLPRPRPRPIGAPRP | -0.464
112 | RRIRDRPPRLPRPRPRPTVNPRP | 0.0689
113 | RRIRWRPPRLPRPRPRPGKCPRP | 0.0425
114 | RRIRTRPPRLPRPRPRPCTRPRP | -0.287
115 | RRIRFRPPRLPRPRPRPPVCPRP | -0.0141
116 | RRIRWRPPRLPRPRPRPWDEPRP | -0.106
117 | RRIRTRPPRLPRPRPRPHFMPRP | -0.339
118 | RRIRCRPPRLPRPRPRPPPDPRP | 1.26
119 | RRIRGRPPRLPRPRPRPHCIPRP | -0.0261
120 | RRIRSRPPRLPRPRPRPHRIPRP | -0.706
121 | RRIRWRPPRLPRPRPRPAVRPRP | -0.0873
122 | RRIRGRPPRLPRPRPRPPGMPRP | 0.989
123 | RRIRPRPPRLPRPRPRPTCIPRP | -0.146
124 | RRIRYRPPRLPRPRPRPSHRPRP | -0.479
125 | RRIRARPPRLPRPRPRPGDVPRP | 0.194
